Results as given in patent US20090029924A1.

Molecular target: Recombinant human furin (human), P09958
Assay: furin, Pyr-RTKR-AMC cleavage

Chain of Recombinant human furin (human), P09958 (P09958 108-714 limits assumed): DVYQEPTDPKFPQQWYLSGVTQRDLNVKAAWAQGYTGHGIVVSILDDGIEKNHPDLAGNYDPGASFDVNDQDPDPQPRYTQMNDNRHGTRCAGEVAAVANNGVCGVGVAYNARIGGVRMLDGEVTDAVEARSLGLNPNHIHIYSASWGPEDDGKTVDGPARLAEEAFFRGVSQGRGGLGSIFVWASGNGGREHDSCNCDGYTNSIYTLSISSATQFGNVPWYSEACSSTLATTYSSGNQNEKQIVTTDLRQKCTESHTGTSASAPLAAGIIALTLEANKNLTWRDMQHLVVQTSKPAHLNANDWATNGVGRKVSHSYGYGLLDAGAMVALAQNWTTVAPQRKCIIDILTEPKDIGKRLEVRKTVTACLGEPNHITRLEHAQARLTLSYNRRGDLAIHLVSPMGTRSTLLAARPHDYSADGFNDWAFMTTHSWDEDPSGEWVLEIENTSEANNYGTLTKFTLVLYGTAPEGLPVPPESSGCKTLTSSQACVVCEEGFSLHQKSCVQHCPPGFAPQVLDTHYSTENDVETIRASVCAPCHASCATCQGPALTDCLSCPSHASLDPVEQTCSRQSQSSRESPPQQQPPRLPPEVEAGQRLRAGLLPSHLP

| Binder | Ki |
| --- | --- |
| RKKRT (modifications not checked) | 1000 nM |
| RRKKRT (modifications not checked) | 32.5 nM |
| RRRKKRT (modifications not checked) | 17.6 nM |
| TPRERRRKAAV (modifications not checked) […] | > 100 nM |
